The test system of series [1] is ZFN7263 (host) (artificial). Kind of series: cell_activity. As to conditions: yeast, paired with 7264 ZFN.
In series [2] the test system is ZFN7263 linker TGGGGSQKP (artificial). The experiment in a line: cell_activity. As to conditions: yeast, paired with 7264 ZFN.
For series [3], the system named is ZFN7263 linker TPLCQRPMKQKP (artificial). The experiment in a line: cell_activity. As to conditions: yeast, paired with 7264 ZFN.
Series [4] has as its system ZFN7263 linker TPNRCPPTKP (artificial). The experiment in a line: cell_activity. The note with it: yeast, paired with 7264 ZFN.
Series [5] deals with ZFN7263 linker TPRPPIPKP (artificial). Kind of series: cell_activity. The note with it: yeast, paired with 7264 ZFN.
Series [6] deals with ZFN7263 linker TQRPQIPPKP (artificial). The experiment in a line: cell_activity. As to conditions: yeast, paired with 7264 ZFN.
Series [7] concerns ZFN7263 linker TYPRPLLAKP (artificial). The experiment in a line: cell_activity. The note with it: yeast, paired with 7264 ZFN.
Series [8] relates to ZFP8196 linker 1f center linker F2-F3 TGEKP replaced by TYPRPIAAKP (artificial). Kind of series: ELONA. As to conditions: normalized ELISA score. On the technique in general: ELISA stands for enzyme-linked immunosorbent assay.
Series [9] has as its system ZFP8196 (host, center linker TGEKP) (artificial).
The subject of series [10] is ZFP8196 linker 1c (artificial).
The test system of series [11] is ZFP8196 linker 1d (artificial).
Series [12] concerns ZFP8196 linker LRQKDERP (artificial).
Series [13] relates to ZFP8196 linker TCPRPPTRKP (artificial).
In series [14] the test system is ZFP8196 linker TEPRAKPPKP (artificial).
The test system of series [15] is ZFP8196 linker TGEGGKP (artificial).
Series [16] deals with ZFP8196 linker TGGGGSQKP (artificial).
The test system of series [17] is ZFP8196 linker TGYSIPRPKP (artificial).
Series [18] relates to ZFP8196 linker TPDAPKPKP (artificial).
The test system of series [19] is ZFP8196 linker TPDRPISTCKP (artificial).
Series [20] concerns ZFP8196 linker TPGLHRPKP (artificial).
Series [21] concerns ZFP8196 linker TPSHTPRPKP (artificial).
In series [22] the test system is ZFP8196 linker TSPRLPAPKP (artificial).
Series [23] deals with ZFP8196 linker TSSPRSNAKP (artificial).
Series [24] concerns ZFP8196 linker TVSPAPCRSKP (artificial).
For series [25], the system named is ZFP7263 linker TYPRPLLAKP center linker F2-F3 TGSQKP replaced by TYPRPLLAKP (artificial). The experiment in a line: ELONA. The note with it: normalized ELISA score.
For series [26], the system named is ZFP7263 (host, center linker TGSQKP) (artificial).
Series [27] concerns ZFP7263 linker LRQKDERP (artificial).
The subject of series [28] is ZFP7263 linker TGEGGKP (artificial).
Series [29] concerns ZFP7263 linker TGGGGSQKP (artificial).
The subject of series [30] is ZFP7263 linker TPLCQRPMKQKP (artificial).
Series [31] has as its system ZFP7263 linker TPNRCPPTKP (artificial).
Series [32] relates to ZFP7263 linker TPRPPIPKP (artificial).
The test system of series [33] is ZFP7263 linker TQRPQIPPKP (artificial).
Series [34] concerns ZFP7264 linker 1e center linker F2-F3 TGSQKP replaced by TVPRPTPPKP (artificial). Kind of series: ELONA. As to conditions: normalized ELISA score.
In series [35] the test system is ZFP7264 (host, center linker TGSQKP) (artificial).
Series [36] has as its system ZFP7264 linker LRQKDERP (artificial).
The test system of series [37] is ZFP7264 linker TGEGGKP (artificial).
Series [38] deals with ZFP7264 linker TGGGGSQKP (artificial).
The test system of series [39] is ZFP7264 linker TGLPKPKP (artificial).
For series [40], the system named is ZFP7264 linker TKHGTPKHREDKP (artificial).
Series [41] concerns ZFP7264 linker TLPLPRPKP (artificial).
The test system of series [42] is ZFP7264 linker TLPPCFRPKP (artificial).
Series [43] relates to ZFP7264 linker TSRPRPKP (artificial).

With “ACTCTGACTGGAAG (double strand) [7263 yeast half-site gap AC]”, the activity (normalized MEL-1) in series [1] turned out to be 0.09; in series [2] it was 0.04; in [3] (value as printed), 1.05; in series [4] it was 0.04; in series [5] it was 0.05; in series [6], 0.03. In [7], the activity (normalized MEL-1) is 0.1.

With “ACTCTGATGGAAG (double strand) [7263 yeast half-site gap A]”, the activity (normalized MEL-1) in series [1] worked out at 0.05; in series [2], 0.14; in [3] it was 0.97; in series [4] it was 1.3; in [5], 1.3; in [6], 1.05. In series [7], this sequence had an activity (normalized MEL-1) of 0.69.

On to “ACTCTGCTGGAAG (double strand) [7263 yeast half-site gap C]”, for which the activity (normalized MEL-1) in [1] was 0.05; in series [2], 0.04; in series [3], 0.3; in series [4], 0.34; in [5] it was 1.41; in [6], 0.43. This sequence also had an activity (normalized MEL-1) in series [7] of 0.37.

On to “ACTCTGGTGGAAG (double strand) [7263 yeast half-site gap G]”, for which the activity (normalized MEL-1) in [1] came to 0.09; in series [2] it was 0.6; in series [3], 1.52; in series [4] it was 2.85; in [5], 2.18; in series [6], 2.18. This sequence also had an activity (normalized MEL-1) in [7] of 2.21.

On to “TTAGATAAACTGACAAAAGGCTATC (double strand) [8196 target gap A]”, for which the binding signal in series [8] was 0.41. Besides, the binding signal (normalized ELISA) in series [9] was 0.01; in series [10], 0.2; in series [11], 0.23; in series [12], 0.01; in series [13], 0.18; in series [14], 0.39. In addition, the binding signal (normalized ELISA) in series [15] came out at 0; in series [16], 0; in series [17], 0.13; in series [18], 0.16; in series [19], 0.11; in series [20] it was 0.19. Also, the binding signal (normalized ELISA) in series [21] stood at 0.3; in series [22], 0.26; in series [23] it was 0.05; in series [24], 0.03.

“TTAGATAAACTGCCAAAAGGCTATC (double strand) [8196 target gap C]” gave a binding signal in series [8] of 0.14. Also, the binding signal (normalized ELISA) in series [9] worked out at 0.01; in [10], 0.09; in series [11], 0.09; in series [12], 0.01; in [13], 0.05; in series [14] it was 0.17. In addition, the binding signal (normalized ELISA) in series [15] was determined as 0; in [16], 0; in series [17], 0.06; in series [18] it was 0.13; in series [19] it was 0.05; in series [20], 0.1. Moreover, the binding signal (normalized ELISA) in [21] is 0.13; in series [22], 0.14; in series [23], 0.02; in series [24] it was 0.01.

“TTAGATAAACTGGCAAAAGGCTATC (double strand) [8196 target gap G]”: the binding signal in [8] amounted to 0.65. The binding signal (normalized ELISA) in [9] was 0.03; in series [10], 0.57; in series [11], 0.52; in series [12], 0.04; in series [13], 0.48; in series [14], 0.78. In addition, the binding signal (normalized ELISA) in series [15] is 0.03; in [16], 0; in series [17], 0.43; in [18], 0.68; in series [19], 0.29; in series [20], 0.65. Further, the binding signal (normalized ELISA) in series [21] came out at 0.84; in series [22], 0.62; in series [23], 0.2; in series [24] it was 0.14.

In turn, “TTAGCCACTCTGATGGAAGTGTATC (double strand) [7263 target gap A]” came in with a binding signal in series [25] of 1.95. The binding signal (normalized ELISA) in series [26] was 0.01; in series [27], 0.03; in series [28] it was 0.02; in [29] it was 0.06; in series [30] it was 1.82; in series [31] it was 1.68. In addition, the binding signal (normalized ELISA) in series [32] is 0.97; in [33] it was 1.66.

For “TTAGCCACTCTGCTGGAAGTGTATC (double strand) [7263 target gap C]”, in series [25], the binding signal came to 1.27. Further, the binding signal (normalized ELISA) in [26] turned out to be 0.01; in series [27], 0.02; in series [28], 0.02; in [29], 0.05; in [30], 1.28; in series [31], 1.13. Besides, the results for the binding signal (normalized ELISA) in series [32] and in [33] were 0.67 and 1, respectively.

With “TTAGCCACTCTGGTGGAAGTGTATC (double strand) [7263 target gap G]”, in series [25], the binding signal turned out to be 3.88. In addition, the binding signal (normalized ELISA) in [26] was 0.03; in [27], 0.18; in [28], 0.05; in series [29], 0.41; in series [30], 3.44; in series [31], 2.62. Besides, the binding signal (normalized ELISA) was determined as 1.85 in series [32] and 2.86 in series [33].

The sequence “TTAGTTAAAGCGAGCTCCGAATATC (double strand) [7264 target gap A]” showed a binding signal in [34] of 2.35. Moreover, the binding signal (normalized ELISA) in [35] turned out to be 0; in series [36], 0.05; in series [37] it was 0.02; in series [38] it was 0.07; in series [39], 0.19; in series [40], 0.01. In addition, the binding signal (normalized ELISA) in series [41] was found to be 0.58; in [42], 0.72; in [43] it was 0.52.

“TTAGTTAAAGCGCGCTCCGAATATC (double strand) [7264 target gap C]” had a binding signal in series [34] of 1.02. The binding signal (normalized ELISA) in series [35] worked out at 0; in [36] it was 0.03; in [37] it was 0.03; in [38], 0.04; in [39], 0.11; in series [40] it was 0.01. The binding signal (normalized ELISA) in series [41] worked out at 0.25; in series [42] it was 0.25; in series [43], 0.22.

Sequence “TTAGTTAAAGCGGGCTCCGAATATC (double strand) [7264 target gap G]” gave a binding signal in series [34] of 1.58. The binding signal (normalized ELISA) in series [35] was found to be 0; in [36], 0.06; in series [37], 0.05; in series [38] it was 0.08; in series [39] it was 0.38; in [40], 0.01. Further, the values for the binding signal (normalized ELISA) in series [41], in [42] and in series [43] were 0.85, 0.77 and 0.77, respectively.

Values taken from US20110287512.
